Measurements taken from US20230149465A1.

Biological target: human IFNγ (human) (UniProt P01579)
Experiment: cell-based or functional assay

UniProt P01579, sequence (P01579 24-166 limits assumed): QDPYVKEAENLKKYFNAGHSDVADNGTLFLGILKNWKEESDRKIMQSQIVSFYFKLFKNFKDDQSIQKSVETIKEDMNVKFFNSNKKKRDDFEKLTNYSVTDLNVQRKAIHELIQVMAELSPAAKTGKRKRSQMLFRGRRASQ

inhibition of IFNγ signaling at dilution 0.5 of supernatant, HEK-Blue IFNγ reporter cells: 80%
Substance: Amg-HL, anti-IFNγ scFv from AMG811 (heavy chain variable region to light chain variable region)
